molecular target: DQ1-MBP85-99 complex, monobiotinylated (SPR); test: SPR

Substance | Kd [µM]
Hy.1B11 TCR double mutant CDR1α N31A and CDR2α S52A | 13.8
Hy.1B11 TCR mutant CDR3α F95A | > 250
Hy.1B11 TCR mutant CDR3α E98A | > 250

Second part, the substance after the results:

Kd [µM] | Substance
108 | Hy.1B11 TCR mutant CDR2β Q48A
14.3 | Hy.1B11 TCR, soluble monomeric wild type

— publication PMC3023130
